Biological target: T1, Y1R L26^NA/F28^NA mutant (printed L28^NA/F28^NA) (human, UniProt P25929 1-384, L26^N to A (the mutant's label is printed L28^NA; the same sentence names the …)
T1 sequence (looked up): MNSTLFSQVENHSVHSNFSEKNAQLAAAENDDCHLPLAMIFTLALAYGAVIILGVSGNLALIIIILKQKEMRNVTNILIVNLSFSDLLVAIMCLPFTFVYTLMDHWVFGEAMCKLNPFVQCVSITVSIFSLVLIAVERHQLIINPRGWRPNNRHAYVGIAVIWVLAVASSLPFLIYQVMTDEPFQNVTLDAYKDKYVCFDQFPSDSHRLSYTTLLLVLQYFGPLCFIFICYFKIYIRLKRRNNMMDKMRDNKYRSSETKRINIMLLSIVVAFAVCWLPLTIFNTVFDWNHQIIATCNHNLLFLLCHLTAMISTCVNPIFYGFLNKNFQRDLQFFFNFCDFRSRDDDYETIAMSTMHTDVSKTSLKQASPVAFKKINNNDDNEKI
Assay: cell-based or functional assay

NPY signalling, increase in EC50 against wild-type Y1R: 2.8 fold
B1: neuropeptide Y (NPY) (peptide)
peptide: not shown
modifications: C-terminal amide (amidated C-terminal residue Y36)

— paper PMC8844075, “Structural basis of neuropeptide Y signaling through Y1 receptor” (Nature Communications, 2022)
